Experimental data published in patent US20250295803A1, “5T4 ANTIBODY-DRUG CONJUGATES AND USES THEREOF” (EXELIXIS, INC., priority 2022, published 2025).

T1: rat 5T4 on transfected HEK293 and CHO cells (rat, UniProt Q5PQV5 32-426)
T1 construct: whole, on cells
T1 sequence (looked up): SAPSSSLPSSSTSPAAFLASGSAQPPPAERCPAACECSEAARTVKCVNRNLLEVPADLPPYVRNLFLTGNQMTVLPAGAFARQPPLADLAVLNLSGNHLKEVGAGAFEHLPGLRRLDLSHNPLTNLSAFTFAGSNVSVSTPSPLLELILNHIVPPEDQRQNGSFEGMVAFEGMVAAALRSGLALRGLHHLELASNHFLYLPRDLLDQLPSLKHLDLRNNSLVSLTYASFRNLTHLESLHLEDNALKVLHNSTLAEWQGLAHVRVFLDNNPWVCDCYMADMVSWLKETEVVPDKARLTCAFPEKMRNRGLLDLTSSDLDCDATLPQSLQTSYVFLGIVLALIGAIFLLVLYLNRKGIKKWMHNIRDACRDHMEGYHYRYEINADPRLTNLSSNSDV

T2: unconjugated human TPBG/5T4 protein with a c-terminal polyhistidine and Avi tag (AcroBiosystems Cat. No. … (human, UniProt Q13641 32-355))
T2 construct: Bought protein; also called Acro TPGH52E5; Acro Catalog No. TPGH52E; not shown: C-terminal polyhistidine and Avi tag
T2 sequence: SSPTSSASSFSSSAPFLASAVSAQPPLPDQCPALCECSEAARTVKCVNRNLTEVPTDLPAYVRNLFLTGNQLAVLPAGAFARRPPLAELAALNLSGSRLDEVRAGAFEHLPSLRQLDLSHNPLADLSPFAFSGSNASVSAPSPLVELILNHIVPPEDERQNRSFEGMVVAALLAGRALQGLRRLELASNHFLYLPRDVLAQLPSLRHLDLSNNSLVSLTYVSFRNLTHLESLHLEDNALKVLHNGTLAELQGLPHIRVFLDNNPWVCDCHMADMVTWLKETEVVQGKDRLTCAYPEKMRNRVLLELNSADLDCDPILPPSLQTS


What was measured:
[1] = biological target: T1, rat 5T4 on transfected HEK293 and CHO …; assay: cell binding on transfected HEK293 and CHO cells
[2] = biological target: T2, unconjugated human TPBG/5T4 protein …; assay: ELISA on coated human 5T4 His-Avi (Acro TPG-H52E5); antibody condition: pH 8.5 Day 0
Method: (§1) A. Normal Binding Unconjugated antibodies were tested for their ability to bind to human 5T4 (hu5T4) using ELISA. On Day 1, unconjugated human TPBG/5T4 protein with a c-terminal polyhistidine and Avi (AVITAG™) tag (AcroBiosystems (Newark, DE, USA), Cat. No. TPG-H52E5) was diluted 2 μg/mL in PBS, mixed thoroughly, plated 100 μL per well in a 96-well plate (Nunc MAXISORP®) and incubated overnight at 4° C.

[3] = biological target: T2, unconjugated human TPBG/5T4 protein …; assay: ELISA on coated human 5T4 His-Avi (Acro TPG-H52E5); antibody condition: pH 8.5 Day 4
Method: as §1

[4] = biological target: T2, unconjugated human TPBG/5T4 protein …; assay: ELISA on coated human 5T4 His-Avi (Acro TPG-H52E5); antibody condition: pH 5.5 Day 4
Method: as §1

[5] = biological target: T2, unconjugated human TPBG/5T4 protein …; assay: ELISA on coated human 5T4 His-Avi (Acro TPG-H52E5); antibody condition: PBS time 24 hr.
Method: as §1
3. Oxidative Stress. Several unconjugated antibodies were tested for their ability to bind to 5T4 using ELISA in an oxidative environment. Solutions of 1 mg/mL to 10 mg/mL of antibody in 20 mM citrate/50 mM NaCl at a pH of 5.5 were prepared and stored at 37° C. for 1 to 2 weeks.

[6] = biological target: T2, unconjugated human TPBG/5T4 protein …; assay: ELISA on coated human 5T4 His-Avi (Acro TPG-H52E5); antibody condition: PBS + H2O2 time 24 hr.
Method: as §1
3. Oxidative Stress. Several unconjugated antibodies were tested for their ability to bind to 5T4 using ELISA in an oxidative environment. […]

[7] = Standup monolayer adsorption chromatography (SMAC) developability; assay type: physicochemical; details: 1 mg/mL in Dulbecco's PBS pH 7.4
Method: Antibodies that were selected for binding to 5T4, such as those described in Examples 2 and 3, were tested by various methods to assess developability. For example, various chromatographic methods, including size exclusion chromatography (SEC), hydrophobic interaction chromatography (HIC), and standup monolayer adsorption chromatography (SMAC) were employed to assess factors, such as monomer percentage, solubility, and antibody aggregation or precipitation.
Standup monolayer adsorption chromatography (SMAC) analysis was performed using a 4.6 mm ID×300 mm Zenix SEC 300 column (Sepax Technologies, PN 213300P-4630) with a 4.6 mm×50 mm guard column (PN 213300P-4605) on an Agilent 1100 HPLC. Antibodies were normalized to 1 mg/mL concentration in Dulbecco's PBS (pH 7.4, without Ca^2+/Mg^2+) and clarified via centrifugation to pellet particulates while still retaining soluble aggregates. The mobile phase buffer was Dulbecco's PBS (pH 7.4, without Ca^2+/Mg^2+) at 2× concentration (diluted from 10× stock concentration). For each sample, 10 μL was loaded and isocratically eluted at 0.4 mL/minute over 32 minutes at ambient temperature. Absorbance was monitored at 280 nm. Sample retention time was calculated and compared to a set of standard controls to identify antibodies with increased retention time (increased propensity to form aggregates and/or increased hydrophobic/electrostatic interactions) as the column stationary phase along with mobile phase selection promotes secondary interactions in addition to molecular sizing. Data analysis was performed using Agilent ChemStation B.04.03 SP1.

| binding result [1] | EC50 [2] | EC50 [3] | EC50 [4] | EC50 [5] | EC50 [6] | Molecule | developability based on SMAC analysis [7] |
| --- | --- | --- | --- | --- | --- | --- | --- |
| no binding | 0.153 nM | 0.15 nM | 0.157 nM | 0.186 nM | 0.183 nM | mAbA17 (antibody, V domains shown, also called Antibody mAbA17) VH: EVQLVESGGGLVQPGGSLRLSCAASGFTFSRYWIHWVRQAPGKGLEWVAAIFPYSGSTLYADSVKGRFTISADTSKNTAYLQMNSLRAEDTAVYYCARSPSRSILPSGLDYWGQGTLVTVSS VL: DIQMTQSPSSLSASVGDRVTITCRASQSVSSAVAWYQQKPGKAPKLLIYSASSLYSGVPSRFSGSRSGTDFTLTISSLQPEDFATYYCQQGDGSPYTFGQGTKVEIKR | – |
| no binding | 0.12 nM | 0.114 nM | 0.125 nM | 0.2 nM | 0.393 nM | mAbA4 (antibody, V domains shown, also called Antibody mAbA4) VH: EVQLVESGGGLVQPGGSLRLSCAASGFTFSRYYIHWVRQAPGKGLEWVAFISPGGSYTYYADSVKGRFTISADTSKNTAYLQMNSLRAEDTAVYYCAREYYSMGVLDYWGQGTLVTVSS VL: DIQMTQSPSSLSASVGDRVTITCRASQSVSSAVAWYQQKPGKAPKLLIYSASSLYSGVPSRFSGSRSGTDFTLTISSLQPEDFATYYCQQAYESPYTFGQGTKVEIKR | – |
| – | – | – | – | – | – | mAbA17: 5T4 antibody comprising VH of SEQ ID NO:62 and VL of SEQ ID NO:63 (antibody, V domains shown, Antibody mAbA17 VH Sequence; Antibody mAbA17 VL Sequence) VH: EVQLVESGGGLVQPGGSLRLSCAASGFTFSRYWIHWVRQAPGKGLEWVAAIFPYSGSTLYADSVKGRFTISADTSKNTAYLQMNSLRAEDTAVYYCARSPSRSILPSGLDYWGQGTLVTVSS VL: DIQMTQSPSSLSASVGDRVTITCRASQSVSSAVAWYQQKPGKAPKLLIYSASSLYSGVPSRFSGSRSGTDFTLTISSLQPEDFATYYCQQGDGSPYTFGQGTKVEIK | strong developability |
| no binding | 0.134 nM | 0.133 nM | 0.123 nM | 0.212 nM | 0.19 nM | mAbA15 (antibody, V domains shown, also called Antibody mAbA15) VH: EVQLVESGGGLVQPGGSLRLSCAASGFTFSSYYIHWVRQAPGKGLEWVAYITSTGSYTEYADSVKGRFTISADTSKNTAYLQMNSLRAEDTAVYYCARYDRSTRYSGLDYWGQGTLVTVSS VL: DIQMTQSPSSLSASVGDRVTITCRASQSVSSAVAWYQQKPGKAPKLLIYSASSLYSGVPSRFSGSRSGTDFTLTISSLQPEDFATYYCQQAYATPVTFGQGTKVEIKR | – |
| – | – | – | – | – | – | mAbA4: 5T4 antibody comprising VH of SEQ ID NO:25 and VL of SEQ ID NO:26 (antibody, V domains shown, Antibody mAbA4 VH Sequence; Antibody mAbA4 VL Sequence) VH: EVQLVESGGGLVQPGGSLRLSCAASGFTFSRYYIHWVRQAPGKGLEWVAFISPGGSYTYYADSVKGRFTISADTSKNTAYLQMNSLRAEDTAVYYCAREYYSMGVLDYWGQGTLVTVSS VL: DIQMTQSPSSLSASVGDRVTITCRASQSVSSAVAWYQQKPGKAPKLLIYSASSLYSGVPSRFSGSRSGTDFTLTISSLQPEDFATYYCQQAYESPYTFGQGTKVEIK | strong developability |
| – | – | – | – | – | – | mAbA15: 5T4 antibody comprising VH of SEQ ID NO:44 and VL of SEQ ID NO:45 (antibody, V domains shown, Antibody mAbA15 VH Sequence; Antibody mAbA15 VL Sequence) VH: EVQLVESGGGLVQPGGSLRLSCAASGFTFSSYYIHWVRQAPGKGLEWVAYITSTGSYTEYADSVKGRFTISADTSKNTAYLQMNSLRAEDTAVYYCARYDRSTRYSGLDYWGQGTLVTVSS VL: DIQMTQSPSSLSASVGDRVTITCRASQSVSSAVAWYQQKPGKAPKLLIYSASSLYSGVPSRFSGSRSGTDFTLTISSLQPEDFATYYCQQAYATPVTFGQGTKVEIK | strong developability |
